# Assay results as given in patent US20240390531A1 (IMAGINAB, published 2024).
# Target: T1, human FAP on cells (human, UniProt Q12884 1-760)
# T1 construct: whole, on cells; The cell line is named under assay; also called HT1080 human FAP cells; HT1080-hFAP cells
# Assay: flow cytometry on U87-MG glioblastoma cells (FIG. 58B)
# Description: As disclosed herein, the binding of constructs to cellular targets was assessed using flow cytometry. Stock of 2.5× serial dilution of minibodies were created starting from a concentration of 100 nM in […] FACS buffer (PBS 2% FBS). Cells were added to a Corning V-bottom polypropylene cell culture plate at 200,000 cells/well. The cells were centrifuged at 100 rpm for 3 minutes and the supernatant discarded. The minibody dilution series were transferred to the plate containing cell pellets and incubated for 1 hr at 4° C. The plate was then washed 3 times with FACS buffer at 200 µl/well, discarding supernatant after each wash by centrifugation at 1000 rpm. 50 µl/well of detection antibody R&D AlexaFluor-647 Goat anti Human (H+L) was added at a 1:100 dilution in FACS buffer and incubated at 4° C. 1 hr. The plate was washed 3 times with FACS buffer at 200 µl/well, discarding supernatant after each wash by centrifuging at 1000 rpm. Cells were then fixed by adding 100 µl of 1% paraformaldehyde in PBS and incubating at room temperature for 15 minutes. 100 µl of PBS were added to each well and the plate was analyzed by flow cytometry using the allophycocyanin fluorescence setting.
row,Binder,Kd
1,IAB16M1-10 (other) EIVLTQSPGTLSLSPGERATLSCRASQSVSRSYLAWYQQKPGQAPRLLIIGASTRATGIPDRFSGSGSGTDFTLTISRLEPEDFAVYYCQQGQVIPPTFGQGTKVEIKGSTSGGGSGGGSGGGGSSEVQLLESGGGLVQPGGSLRLSCAASGFTFSSHAMSWVRQAPGKGLEWVSAIWASGEQYYADSVKGRFTISRDNSKNTLYLQMNSLRAEDTAVYYCAKGWLGNFDYWGQGTLVTVSSEPKSSDKTHTCPPCPPCGGGSSGGGSGGQPREPQVYTLPPSREEMTKNQVSLTCLVKGFYPSDIAVEWESNGQPENNYKTTPPVLDSDGSFFLYSKLTVDKSRWQQGNVFSCSVMHEALHNHYTQKSLSLSPG,~100 pM

# Target: T2, purified human FAP antigen (human, UniProt Q12884 26-760, limits assumed)
# Assay: ELISA, plate coated with purified human FAP antigen (FIG. 56A-56C)
# Description: (§1) Binding kinetics of the novel antigen binding constructs to a purified human FAP antigen was assessed using ELISA. For this assay, a 96 well ELISA plate was coated with the human-FAP antigen diluted to a concentration of 2 mg/mL in coating buffer (0.05M sodium carbonate-bicarbonate buffer, pH 9.6). 100 μl of this coating solution was added to each well in the plate and incubate at 4° C. overnight. The plate was washed 3 times with 300 μl per well of washing buffer (PBS with 0.05% Tween-20). After the last wash, the plate was blocked by adding to each well 200 μl of blocking buffer (PBS with 1% BSA) warmed to room temperature. The plate was then incubated at room temperature for 1 hour under gentle agitation. After blocking, the plate was washed 3 times with 300 μl per well of washing buffer. Dilution samples for each minibody were created by making 2.5× dilutions from a starting sample at 100 ng/mL, or 250 ng/mL, or 1000 ng/mL or 3000 ng/mL in 100 μL sample buffer (PBS with 1% BSA). The dilution samples were transferred to the assay plate and incubated at room temperature for 1 hour under gentle agitation. The plate was then washed 3 times with 300 μl per well of washing buffer.
# (§2) Detection was performed by adding 100 μl of HRP labeled detection secondary antibody at an appropriate dilution and incubating the plate at room temperature for 1 hour under gentle agitation. The plate was then washed 3 times with 300 μl per well of washing buffer. For color development, 100 μl of TMB substrate regent, pre-warmed to room temperature, was added to the plate and incubated in the dark at room temperature for 15 min. The reaction was then stopped by adding 100 μl of 650 nm stop solution to the plate and mixed for 1 min at room temperature under gentle agitation. The plate is recorded by reading OD at 650 nm in a plate reader within 20 min after terminating the reaction.
row,Binder,Kd
1,IAB16M1-30 (other) DIVMTQSPDSLAVSLGERATINCKSSQSLLYSRNQKNYLAWYQQKPGQPPKLLIFWASTRESGVPDRFSGSGSGTDFTLTISSLQAEDFAVYYCQQYYSYPLTFGQGTKVEIKGSTSGGGSGGGSGGGGSSQVQLVQSGAEVKKPGASVKVSCKASGYTFTEYTIHWVRQAPGQRLEWIGGINPNNGIPNYNQKFKGRVTITVDTSASTAYMELSSLRSEDTAVYYCARRRIAYGYDEGHAMDYWGQGTLVTVSSEPKSSDKTHTCPPCPPCGGGSSGGGSGGQPREPQVYTLPPSREEMTKNQVSLTCLVKGFYPSDIAVEWESNGQPENNYKTTPPVLDSDGSFFLYSKLTVDKSRWQQGNVFSCSVMHEALHNHYTQKSLSLSPG,~100 pM
2,IAB16M1-32 (other) DIVMTQSPDSLAVSLGERATINCKSSQSLLYSRNQKNYLAWYQQKPGQPPKLLIFWASTRESGVPDRFSGSGFGTDFTLTISRLEPEDFAVYYCQQYFSYPLTFGQGTKVEIKGSTSGGGSGGGSGGGGSSQVQLVQSGAEVKKPGASVKVSCKTSRYTFTEYTIHWVRQAPGQRLEWIGGINPNNGIPNYNQKFKGRVTITVDTSASTAYMELSSLRSEDTAVYYCARRRIAYGYDEGHAMDYWGQGTLVTVSSEPKSSDKTHTCPPCPPCGGGSSGGGSGGQPREPQVYTLPPSREEMTKNQVSLTCLVKGFYPSDIAVEWESNGQPENNYKTTPPVLDSDGSFFLYSKLTVDKSRWQQGNVFSCSVMHEALHNHYTQKSLSLSPG,~100 pM
3,IAB16M1-36 (other) DIVMTQSPDSLAVSLGERATINCKSSQSLLYSRNQKNYLAWYQQKPGQPPKLLIFWASTRESGVPDRFSGSGSGTDFTLTISRLEPEDFAVYYCQQYYSYPLTFGQGTKVEIKGSTSGGGSGGGSGGGGSSQVQLVQSGAEVKKPGASVKVSCKASGYTFTEYTIHWVRQAPGQRLEWIGGINPNNGIPNYNQKFKGRVTITVDTSASTAYMELSSLRSEDTAVYYCARRRIAYGYDEGHAMDYWGQGTLVTVSSEPKSSDKTHTCPPCPPCGGGSSGGGSGGQPREPQVYTLPPSREEMTKNQVSLTCLVKGFYPSDIAVEWESNGQPENNYKTTPPVLDSDGSFFLYSKLTVDKSRWQQGNVFSCSVMHEALHNHYTQKSLSLSPG,~100 pM
4,IAB16M2-33 (other) QVQLVQSGAEVKKPGASVKVSCKTSRYTFTEYTIHWVRQAPGQRLEWIGGINPNNGIPNYNQKFKGRVTITVDTSASTAYMELSSLRSEDTAVYYCARRRIAYGYDEGHAMDYWGQGTLVTVSSGSTSGGGSGGGSGGGGSSDIVMTQSPDSLAVSLGERATINCKSSQSLLYSRNQKNYLAWYQQKPGQPPKLLIFWASTRESGVPDRFSGSGFGTDFTLTISRLEPEDFAVYYCQQYFSYPLTFGQGTKVEIKEPKSSDKTHTCPPCPPCGGGSSGGGSGGQPREPQVYTLPPSREEMTKNQVSLTCLVKGFYPSDIAVEWESNGQPENNYKTTPPVLDSDGSFFLYSKLTVDKSRWQQGNVFSCSVMHEALHNHYTQKSLSLSPG,~100 pM

# More lines, now with the values ahead:
row,Kd,Binder
1,~100 pM,IAB16M1-10 (other) EIVLTQSPGTLSLSPGERATLSCRASQSVSRSYLAWYQQKPGQAPRLLIIGASTRATGIPDRFSGSGSGTDFTLTISRLEPEDFAVYYCQQGQVIPPTFGQGTKVEIKGSTSGGGSGGGSGGGGSSEVQLLESGGGLVQPGGSLRLSCAASGFTFSSHAMSWVRQAPGKGLEWVSAIWASGEQYYADSVKGRFTISRDNSKNTLYLQMNSLRAEDTAVYYCAKGWLGNFDYWGQGTLVTVSSEPKSSDKTHTCPPCPPCGGGSSGGGSGGQPREPQVYTLPPSREEMTKNQVSLTCLVKGFYPSDIAVEWESNGQPENNYKTTPPVLDSDGSFFLYSKLTVDKSRWQQGNVFSCSVMHEALHNHYTQKSLSLSPG
2,~100 pM,IAB16M2-31 (other) QVQLVQSGAEVKKPGASVKVSCKASGYTFTEYTIHWVRQAPGQRLEWIGGINPNNGIPNYNQKFKGRVTITVDTSASTAYMELSSLRSEDTAVYYCARRRIAYGYDEGHAMDYWGQGTLVTVSSGSTSGGGSGGGSGGGGSSDIVMTQSPDSLAVSLGERATINCKSSQSLLYSRNQKNYLAWYQQKPGQPPKLLIFWASTRESGVPDRFSGSGSGTDFTLTISSLQAEDFAVYYCQQYYSYPLTFGQGTKVEIKEPKSSDKTHTCPPCPPCGGGSSGGGSGGQPREPQVYTLPPSREEMTKNQVSLTCLVKGFYPSDIAVEWESNGQPENNYKTTPPVLDSDGSFFLYSKLTVDKSRWQQGNVFSCSVMHEALHNHYTQKSLSLSPG

# Target: T2, purified human FAP antigen
# Assay: ELISA, plate coated with purified human FAP antigen (FIG. 56F-56G)
# Description: as §1, §2
row,Binder,Kd
1,IAB16C2-25 (other) EVQLLESGGGLVQPGGSLRLSCAASGFTFSSHAMSWVRQAPGKGLEWVSAIWASGEQYYADSVKGRFTISRDNSKNTLYLQMNSLRAEDTAVYYCAKGWLGNFDYWGQGTLVTVSSSGGGGEIVLTQSPGTLSLSPGERATLSCRASQSVSRSYLAWYQQKPGQAPRLLIIGASTRATGIPDRFSGSGSGTDFTLTISRLEPEDFAVYYCQQGQVIPPTFGQGTKVEIKGGCPPCPPC,~1000 pM
2,IAB16C4-17 (other) QVQLVQSGAEVKKPGASVKVSCKTSRYTFTEYTIHWVRQAPGQRLEWIGGINPNNGIPNYNQKFKGRVTITVDTSASTAYMELSSLRSEDTAVYYCARRRIAYGYDEGHAMDYWGQGTLVTVSSGGGSGGGGDIVMTQSPDSLAVSLGERATINCKSSQSLLYSRNQKNYLAWYQQKPGQPPKLLIFWASTRESGVPDRFSGSGFGTDFTLTISSLQAEDVAVYYCQQYFSYPLTFGQGTKVEIKGGCPPCPPC,~1000 pM

# The next lines start with the values.
row,Kd,Binder
1,~1000 pM,IAB16C1-24 (other) EIVLTQSPGTLSLSPGERATLSCRASQSVSRSYLAWYQQKPGQAPRLLIIGASTRATGIPDRFSGSGSGTDFTLTISRLEPEDFAVYYCQQGQVIPPTFGQGTKVEIKSGGGGEVQLLESGGGLVQPGGSLRLSCAASGFTFSSHAMSWVRQAPGKGLEWVSAIWASGEQYYADSVKGRFTISRDNSKNTLYLQMNSLRAEDTAVYYCAKGWLGNFDYWGQGTLVTVSSGGCPPCPPC
2,~1000 pM,IAB16C2-16 (other) QVQLVQSGAEVKKPGASVKVSCKTSRYTFTEYTIHWVRQAPGQRLEWIGGINPNNGIPNYNQKFKGRVTITVDTSASTAYMELSSLRSEDTAVYYCARRRIAYGYDEGHAMDYWGQGTLVTVSSSGGGGDIVMTQSPDSLAVSLGERATINCKSSQSLLYSRNQKNYLAWYQQKPGQPPKLLIFWASTRESGVPDRFSGSGFGTDFTLTISSLQAEDVAVYYCQQYFSYPLTFGQGTKVEIKGGCPPCPPC
3,~1000 pM,IAB16C2-18 (other) EVQLLESGGGLVQPGGSLRLSCAASGFTFSSYAMSWVRQAPGKGLEWVSAIIGSGASTYYADSVKGRFTISRDNSKNTLYLQMNSLRAEDTAVYYCAKGWFGGFNYWGQGTLVTVSSSGGGGEIVLTQSPGTLSLSPGERATLSCRASQSVTSSYLAWYQQKPGQAPRLLINVGSRRATGIPDRFSGSGSGTDFTLTISRLEPEDFAVYYCQQGIMLPPTFGQGTKVEIKGGCPPCPPC
4,~1000 pM,"IAB16C4-19 (other, also called IAB164-19) EVQLLESGGGLVQPGGSLRLSCAASGFTFSSYAMSWVRQAPGKGLEWVSAIIGSGASTYYADSVKGRFTISRDNSKNTLYLQMNSLRAEDTAVYYCAKGWFGGFNYWGQGTLVTVSSGGGSGGGGEIVLTQSPGTLSLSPGERATLSCRASQSVTSSYLAWYQQKPGQAPRLLINVGSRRATGIPDRFSGSGSGTDFTLTISRLEPEDFAVYYCQQGIMLPPTFGQGTKVEIKGGCPPCPPC"
5,~1000 pM,IAB16C4-27 (other) EVQLLESGGGLVQPGGSLRLSCAASGFTFSSHAMSWVRQAPGKGLEWVSAIWASGEQYYADSVKGRFTISRDNSKNTLYLQMNSLRAEDTAVYYCAKGWLGNFDYWGQGTLVTVSSGGGSGGGGEIVLTQSPGTLSLSPGERATLSCRASQSVSRSYLAWYQQKPGQAPRLLIIGASTRATGIPDRFSGSGSGTDFTLTISRLEPEDFAVYYCQQGQVIPPTFGQGTKVEIKGGCPPCPPC
